Experimental data published in article PMC8755724, “Single particle cryo-EM structure of the outer hair cell motor protein prestin” (Nature Communications, 2022).

Molecular target: the molecule itself
Experiment: cryo-EM structure; single-particle cryo-EM of detergent-solubilised prestin (extracted in digitonin, purified in GDN), about 2 mg/ml, 10 mM HEPES, 200 mM NaCl, 0.02% GDN, pH 7.4; C2 symmetry imposed; 3.6 Å

B1: full-length prestin from gerbil (Meriones unguiculatus) tagged at its C terminus with enhanced yellow fluorescent protein (EYFP) (natural protein, UniProt Q9JKQ2 1-744, looked up)
chain: MDHAEENEIPVATQKYHVERPIFSHPVLQERLHVKDKVSESIGDKLKQAFTCTPKKIRNIIYMFLPITKWLPAYKFKEYVLGDLVSGISTGVLQLPQGLAFAMLAAVPPVFGLYSSFYPVIMYCFFGTSRHISIGPFAVISLMIGGVAVRLVPDDIVIPGGVNATNGTEARDALRVKVAMSVTLLSGIIQFCLGVCRFGFVAIYLTEPLVRGFTTAAAVHVFTSMLKYLFGVKTKRYSGIFSVVYSTVAVLQNVKNLNVCSLGVGLMVFGLLLGGKEFNERFKEKLPAPIPLEFFAVVMGTGISAGFNLHESYSVDVVGTLPLGLLPPANPDTSLFHLVYVDAIAIAIVGFSVTISMAKTLANKHGYQVDGNQELIALGICNSIGSLFQTFSISCSLSRSLVQEGTGGKTQLAGCLASLMILLVILATGFLFESLPQAVLSAIVIVNLKGMFMQFSDLPFFWRTSKIELTIWLTTFVSSLFLGLDYGLITAVIIALLTVIYRTQSPSYKVLGQLPDTDVYIDIDAYEEVKEIPGIKIFQINAPIYYANSDLYSNALKRKTGVNPALIMGARRKAMRKYAKEVGNANIANAAVVKVDGEVDGENATKPEEEDDEVKYPPIVIKTTFPEELQRFMPQTENVHTIILDFTQVNFIDSVGVKTLAVMVKEYGDVGIYVYLAGCSPQVVNDLTRNRFFENPALKELLFHSIHDAVLGSHVREAMAEQEASAPPPQDDMEPNATPTTPEA
notes: prestin (Slc26a5), gerbil (Meriones unguiculatus), GenBank AF230376, full-length cDNA; the model is built to residue A726; also called Slc26a5; prestin-YFP; not shown: EYFP, C-terminal, kept
In the case of B1, the “stoichiometry N” value is reported as 2.
